Experimental data as given in PMC2711566.
Each block holds one molecule with its values, some of them ahead of it.

Assays:
GST = test: native gel or EMSA
[1] = biological target: T1, recombinant TIP47 (human), O60664; test: SEC; settings: remark: other sources report otherwise
T1 chain: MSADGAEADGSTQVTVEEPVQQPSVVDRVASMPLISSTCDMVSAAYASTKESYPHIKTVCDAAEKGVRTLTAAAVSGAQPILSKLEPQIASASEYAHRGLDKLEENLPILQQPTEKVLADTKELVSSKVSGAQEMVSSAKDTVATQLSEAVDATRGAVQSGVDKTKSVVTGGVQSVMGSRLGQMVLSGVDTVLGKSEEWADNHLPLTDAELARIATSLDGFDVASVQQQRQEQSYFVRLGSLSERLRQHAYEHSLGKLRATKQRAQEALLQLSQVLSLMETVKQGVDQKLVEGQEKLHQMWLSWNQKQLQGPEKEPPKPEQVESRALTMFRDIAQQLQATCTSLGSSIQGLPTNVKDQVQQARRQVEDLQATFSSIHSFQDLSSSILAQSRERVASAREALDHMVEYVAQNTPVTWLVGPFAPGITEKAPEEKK

Molecule: GST (natural protein)
stoichiometry N (GST): 2

stoichiometry N [1]: 3
B1: recombinant TIP47, O60664 1-434 (natural protein)
chain: T1 chain
